Data: US9266964
Values belong to the binder of their own block, whether it stands above or below them.

Target: T1, human plasma kallikrein (human, UniProt P03952 20-390; P03952 391-638)
T1 construct: two disulfide-linked chains; also called pKal; human pKal
Experiment: ELISA; signal on coated biotinylated human plasma kallikrein divided by signal on streptavidin; Fab
Text: Abbreviations used: "T/B" is the ELISA signal obtained using of the target (biotinylated plasma kallikrein) divided by the ELISA signal of the "background" (streptavidin); both of which were coated on microtiter plates. "nd" is not determined. The symbol "q" refers to the amber suppressible stop codon (TAG), which is translated as glutamine (Q) in strains of E. coli such as the TG1 cells that were used to express the Fab fragments.

T1 sequence (P03952 20-390, chain 1 of 2): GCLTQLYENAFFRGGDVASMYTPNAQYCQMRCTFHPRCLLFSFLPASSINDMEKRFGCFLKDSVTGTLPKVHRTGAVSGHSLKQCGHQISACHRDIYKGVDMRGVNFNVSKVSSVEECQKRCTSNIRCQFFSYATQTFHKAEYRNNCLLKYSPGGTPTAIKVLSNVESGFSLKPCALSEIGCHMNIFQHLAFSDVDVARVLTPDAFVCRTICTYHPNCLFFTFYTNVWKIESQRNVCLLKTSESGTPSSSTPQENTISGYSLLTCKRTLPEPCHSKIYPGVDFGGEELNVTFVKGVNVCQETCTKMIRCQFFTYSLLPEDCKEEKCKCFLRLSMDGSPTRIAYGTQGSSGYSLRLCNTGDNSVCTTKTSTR
T1 sequence (P03952 391-638, chain 2 of 2): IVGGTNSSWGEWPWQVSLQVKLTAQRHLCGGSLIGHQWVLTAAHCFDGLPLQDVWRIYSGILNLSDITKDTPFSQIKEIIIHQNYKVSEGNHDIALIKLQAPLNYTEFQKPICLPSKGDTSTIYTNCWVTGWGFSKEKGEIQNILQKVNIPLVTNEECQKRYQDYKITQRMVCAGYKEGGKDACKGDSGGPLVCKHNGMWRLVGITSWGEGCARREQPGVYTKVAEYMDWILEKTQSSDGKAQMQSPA

B1: M10-F09 (Fab, V domains shown)
VH: EVQLLESGGGLVQPGGSLRLSCAASGFTFSNYDMMWVRQAPGKGLEWVSYISPSGGFTRYADSVKGRFTISRDNSKNTLYLQMNSLRAEDTATYYCAKDIYYYNWGPSHYFDSWGQGTLVTVSS
VL: DIQMTQSPSSLSASVGDRVTITCRASQTIDDDLIWYQQKPGRAPKLLIYAASSLQSGVPSRFSGSGSGTDFTLTITSLQPEDFATYYCQQSYNIPRTFGQGTKLESK
notes: Fab fragment (E. coli TG1); printed HC runs into the start of CH1
Human pKal ELISA (T/B): 4.8 T/B (target signal / background signal)

B4: M10-D11 (Fab, V domains shown)
VH: EVQLLESGGGLVQPGGSLRLSCAASGFTFSAYPMNWVRQAPGKGLEWVSRISSSGGNTSYADSVKGRFTISRDNSKNTLYLQMNSLRAEDTAVYYCALGYLGYWGQGTLVTVSS
VL: not shown
notes: as for B1
Human pKal ELISA (T/B): 6.4 T/B (target signal / background signal)

B7: M10-B09 (Fab, V domains shown)
VH: EVQLLESGGGLVQPGGSLRLSCAASGFTFSWYEMSWVRQAPGKGLEWVSRIWPSGGVTMYADSVKGRFTISRDNSKNTLYLQMNSLRAEDTAVYYCTRTSITTVGMDVWGQGTTVTVSS
VL: DIQMTQSPSSLSASVGDGVTITCRASQSISTYLNWYQQRPGKAPKLLIYGASSLQSGVPSRFSGSGSGTDFTLTISSLQREDFATYYCQQSFSTPWTFGQGTRVEIK
notes: Fab fragment (E. coli TG1); printed HC runs into the start of CH1; The HC is printed with an amber codon 'q' (LqMNSL), written here as Q
Human pKal ELISA (T/B): 14.1 T/B (target signal / background signal)

B8: M11-A10 (Fab, V domains shown)
VH: EVQLLESGGGLVQPGGSLRLSCAASGFTFSNYWMMWVRQAPGKGLEWVSGIGSSGGFTSYADSVKGRFTISRDNSKNTLYLQMNSLRAEDTAVYYCAKGSYSDYGVFESWGQGTLVTVSS
VL: DIQMTQSPSSLSASVGDRVAITCRASQSIDTYLNWYQQKPGKAPKLLIYDASNLEIGVPSRFSGSGSGTDFTFIINSLQPEDVATYYCQHYLYAPYSFGQGTKLEIK
notes: as for B1
Human pKal ELISA (T/B): 25 T/B (target signal / background signal)

B9: M10-C11 (Fab, V domains shown)
VH: EVQLLESGGGLVQPGGSLRLSCAASGFTFSMYPMMWVRQAPGKGLEWVSYISPSGGMTDYADSVKGRFTISRDNSKNTLYLQMNSLRAEDMAVYYCARVAGSSDAFDIWGQGTMVTVSS
VL: DIQMTQSPSSLSASVGDRVTITCRASQSISIYLNWYQQKPEKAPKLLIFAASTLQSGVPSRFSGSGSGTDFTLTISNLQPEDFATYYCQQSHSIPPTFGLGTKVEVK
notes: as for B1
Human pKal ELISA (T/B): 5.3 T/B (target signal / background signal)

Results, then the binder that gave them:

Human pKal ELISA (T/B): 32.8 T/B (target signal / background signal)
B2: M10-E06 (Fab, V domains shown)
VH: EVQLLESGGGLVQPGGSLRLSCAASGFTFSLYRMFWVRQAPGKGLEWVSSIWSSGGPTMYADSVKGRFTISRDNSKNTLYLQMNSLRAEDTAVYYCAREYPSTYYFDYWGQGTLVTVSS
VL: DIQMTQSPSSLSASVGDRVTITCRASQSISTYLNWYQQKPGKAPKLLIYGASSLQSGVPSRFSGSGSGTDFTLTISSLQPEDFTIYYCQQSYSDPYTFGQGTKLDIK
notes: as for B1

Human pKal ELISA (T/B): 43.2 T/B (target signal / background signal)
B3: M11-E04 (Fab, V domains shown)
VH: EVQLLESGGGLVQPGGSLRLSCAASGFTFSMYHMNWVRQAPGKGLEWVSGIVSSGGVTFYADSVKGRFTISRDNSKNTLYLQMNSLRAEDTAVYYCARITTVTTGGAFDIWGQGTMVTVSS
VL: DIQMTQSPSSLSASVGDRVTITCRASQSISIYLTWYQHRPGKAPNLLIYGAATLQTGVPSRFSGSGSGTDFTLTIRGLQPEDFATYYCQQTFSLPRTFGQGTKLEIK
notes: as for B1

Human pKal ELISA (T/B): 7.1 T/B (target signal / background signal)
B5: M10-G09 (Fab, V domains shown)
VH: EVQLLESGGGLVQPGGSLRLSCAASGFTFSQYGMQWVRQAPGKGLEWVSSIRSSGGATRYADSVKGRFTISRDNSKNTLYLQMNSLRAEDTAVYYCARDGYYDSSGYPDYWGQGTLVTVSS
VL: DIQMTQSPSSLSASVGDSVTITCRASQSISGYINWYQQKAGKAPKLLIYAASSLQSGVPSRFSGSGSGTHFTLTISSLQPEDFATYYCQQYVSYPFTFGPGTKVDIK
notes: as for B1

Human pKal ELISA (T/B): 11.7 T/B (target signal / background signal)
B6: M11-E01 (Fab, V domains shown)
VH: EVQLLESGGGLVQPGGSLRLSCAASGFTFSTYEMYWVRQAPGKGLEWVSGIGSSGGMTMYADSVKGRFTISRDNSKNTLYLQMNSLRAEDTAMYYCAREQPGIAALQFWGQGTLVTVSS
VL: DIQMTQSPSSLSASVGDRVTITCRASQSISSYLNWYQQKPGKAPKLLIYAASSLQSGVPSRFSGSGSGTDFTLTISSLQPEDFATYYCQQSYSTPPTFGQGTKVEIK
notes: as for B1
